{"source": "paper doi:10.1101/2023.03.10.532066", "binders": {"B1": {"name": "pDFR-p1m (mpDFR-D-EMSA) (dsDNA)", "DNA 1": "ATACCAACACTAAAAAAAAAAAAAAAAAAACATAGAAGAAGAGAGCCAC", "DNA 2": "GTGGCTCTCTTCTTCTATGTTTTTTTTTTTTTTTTTTTAGTGTTGGTAT"}, "B2": {"name": "TTG1 probe (pTTG1-A-EMSA) (dsDNA)", "DNA 1": "TCTTTTTTGTCTTCTTATGTGATATCAAATTTTATGATCT", "DNA 2": "AGATCATAAAATTTGATATCACATAAGAAGACAAAAAAGA"}, "B3": {"name": "pTTG1m (mpTTG1-A-EMSA) (dsDNA)", "DNA 1": "B2 DNA 1 with G21A, T23A, T25A, C26A", "DNA 2": "B2 DNA 2 with G15T, A16T, A18T, C20T"}}, "key": {"[1]": {"target": "T1, GLK2 (Arabidopsis thaliana, UniProt Q9FFH0 1-386)", "T1 sequence": "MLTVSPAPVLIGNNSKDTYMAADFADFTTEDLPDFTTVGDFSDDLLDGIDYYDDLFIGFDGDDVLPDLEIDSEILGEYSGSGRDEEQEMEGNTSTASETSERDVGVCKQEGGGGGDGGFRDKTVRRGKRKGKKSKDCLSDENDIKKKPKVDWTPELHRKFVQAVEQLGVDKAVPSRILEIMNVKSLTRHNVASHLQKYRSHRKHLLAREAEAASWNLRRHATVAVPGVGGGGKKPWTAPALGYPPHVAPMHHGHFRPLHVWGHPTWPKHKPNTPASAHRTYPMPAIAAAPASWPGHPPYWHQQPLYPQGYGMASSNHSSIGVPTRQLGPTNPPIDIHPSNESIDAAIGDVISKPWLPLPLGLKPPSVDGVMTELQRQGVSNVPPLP", "assay": "competition"}, "[2]": {"target": "T1, GLK2", "assay": "EMSA"}}, "note": "Positions count from the first letter of the chain named.", "data": [{"binder": "B1", "values": [{"measurement": "binding result", "setting": "[1]", "value": "no binding"}]}, {"binder": "B2", "values": [{"measurement": "binding result", "setting": "[2]", "value": "binds"}]}, {"binder": "B3", "values": [{"measurement": "binding result", "setting": "[2]", "value": "no binding"}]}]}
